The numbers were not newly measured in publication PMC4618177, which cites them from elsewhere.

Where two headings read alike, the source gives them in different places.

Data set [1] addresses IAA17 PB1 (Arabidopsis thaliana) (UniProt P93830).
The target of data set [2] is ARF5 PB1 (Arabidopsis thaliana) (UniProt P93024).
Data set [3] addresses IAA17 PB1 (Arabidopsis thaliana) (UniProt P93830). The source holds these as a separate data set.

As to ARF5 PB1 (from UniProt P93024), the Kd in data set [1] is 73 nM; in data set [2], 860 nM.
On to IAA17 PB1 (from UniProt P93830), for which the Kd in data set [3] is 6600 nM.
